Experimental data published in US5763245A, “Method of controlling insects” (priority 1996, dated 1998).

Tests used:
[1] = tested on: boll weevil larvae; assay: Boll weevil larvae bioassay (diet incorporation); assay type: in vivo
Method: Assays for activity against boll weevil larvae are carried out by incorporating the test sample into a agar liquid diet similar to that for southern corn rootworm [Marrone et al., 1985]. The test sample is substituted for the 20% water component. Neonate larvae are allowed to feed on the diet and mortality and growth stunting are evaluated.
Protein concentrations were determined spectrophotometrically with BCA protein reagent [Smith et al., 1985].

[2] = tested on: beet armyworm; assay: Lepidopteran larvae bioassay on treated artificial diet, six days; assay type: in vivo; settings: stage lv, dose 100 μg/mL
Method: (§1) Lepidopteran larvae were tested on artificial diet treated with the indicated amount of the A19249 3-hydroxysteroid oxidase (cholesterol oxidase) for six days.

[3] = tested on: corn earworm; assay: as above; assay type: in vivo; settings: stage lv
Method: as §1

[4] = tested on: black cutworm; assay: as above; assay type: in vivo; settings: stage lv, dose 100 μg/mL
Method: as §1

[5] = tested on: pink bollworm; assay: as above; assay type: in vivo; settings: stage lv
Method: as §1

[6] = tested on: fall army worm; assay: as above; assay type: in vivo; settings: stage lv, dose 30 μg/mL
Method: as §1

[7] = tested on: European cornborer; assay: as above; assay type: in vivo; settings: stage lv
Method: as §1

[8] = tested on: tobacco budworm; assay: as above; assay type: in vivo
Method: as §1

[9] = tested on: tobacco hornworm; assay: as above; assay type: in vivo; settings: stage lv
Method: as §1

[10] = 3-Hydroxysteroid oxidase assay (spectrophotometric); assay type: biochemical
Method: The identity of the enzyme was confirmed by testing its ability to oxidize a 3-hydroxysteroid, specifically cholesterol. The enzyme is added to a reagent mixture comprising horseradish peroxidase (20 U/mL), phenol (14 mM), 4-amino antipyrine (0.82 mM), Triton® X-100 (0.05%) and phosphate buffer (100 mM, pH 7). The sterol in isopropanol is then added and the absorbance at 500 nm monitored. One unit of activity is defined as the amount of enzyme required to oxidize 1 &mole of sterol per minute at 20% C.
The activity levels of the enzymes are reported in Table 12 for 3-hydroxysteroids representative of various classes of 3-hydroxysteroids.

[11] = tested on: tobacco budworm larvae; assay: Extended test with tobacco budworm larvae; assay type: in vivo; settings: 100 ppm in artificial diet
Method: An extended test was performed with tobacco budworm larvae to test the effect of the stunting noted in the six-day test. Tobacco budworm eggs were added to artificial diet (as described above) containing either buffer or 100 ppm A19249 3-hydroxysteroid oxidase (cholesterol oxidase). After seven days, some mortality as compared to the controls was noted. Surviving larvae were moved to fresh diet (control or treated, as appropriate). Percent mortality (corrected for control mortality) is reported for the 7 day and 10 day periods in Table 2A. The corrected number of larvae was […]

B1: A19249: 3-hydroxysteroid oxidase produced by streptomycete A19249 collected in Madagascar; 52.5 kDa, SEQ ID NO: 8 (protein)
chain: VNAHQPLSRRRMLGLAALGAAALTGQTTITAAPRAAAATAPGGSGGTFVPAVVIGTGYGAAVSALRLGEAGVSTLMLEMGQLWNQPGPDGNVFCGMLKPDKRSSWFKTRTEAPLGSFLWLDLANRDIDPYAGVLDRVNFDQMSVYVGRGVGGGSLVNGGMAVTPRRSYFQEVLPQVDADEMYGTYFPRANSGLRVNNIDKDWFEQTEWYTFARVARLQAENAGLKTTFVPNVYDWDYMRGEADGTNPKSALAAEVIYGNNHGKVSLDKSYLAAALGTGKVTVETLHQVKTIRQQNDGTYLLTVEQKDPDGKLLGTKEISCRHLFLGAGSLGSIELLLRARETGTLPGLSSEIGGGWGPNGNIMTARANHVWNPTGSKQSSIPALGIDDWDNPDNPVFAEIAPMPAGLETWVSLYLAITKNPERGTFVYDAAKDRADLRWTRDQNAPAVAAAKSLFDRVNKANTTIYRYDLFGKQIKAFADDFCYHPLGGCVLGKATDNYGRVSGYKNLYVTDGSLIPGSIGVNPFVTITALAERNVERVIKEDIAGS
With B1 the “BollWeevil % Mortality” value ([1]; 5 μg/mL, 175 mUnits per mL) was 10%, the “Survivor Stunting” value ([1]; 5 μg/mL, 175 mUnits per mL) was “Slight” and the “BollWeevil % Mortality” value ([1]; 10 μg/mL, 350 mUnits per mL) was 10%. For the same molecule, the “Survivor Stunting” value ([1]; 10 μg/mL, 350 mUnits per mL) was “Moderate”, the “BollWeevil % Mortality” value ([1]; 15 μg/mL, 525 mUnits per mL) was 5% and the “Survivor Stunting” value ([1]; 15 μg/mL, 525 mUnits per mL) was “Moderate”. The “BollWeevil % Mortality” value ([1]; 20 μg/mL, 700 mUnits per mL) was 15%, the “Survivor Stunting” value ([1]; 20 μg/mL, 700 mUnits per mL) was “Severe” and the “BollWeevil % Mortality” value ([1]; 40 μg/mL, 1400 mUnits per mL) was 70%. For the same molecule, the “Survivor Stunting” value ([1]; 40 μg/mL, 1400 mUnits per mL) was “Severe”, the “BollWeevil % Mortality” value ([1]; 60 μg/mL, 2100 mUnits per mL) was 60% and the “Survivor Stunting” value ([1]; 60 μg/mL, 2100 mUnits per mL) was “Severe”. For the same molecule, the Stunting [2] was 76%, the Stunting ([3]; dose 50 μg/mL) was 0 and the Stunting ([3]; dose 100 μg/mL) was 35%. For the same molecule, the Stunting [4] was 68%, the Stunting ([5]; dose 50 μg/mL) was 0 and the Stunting ([5]; dose 100 μg/mL) was 30%. For the same molecule, the Stunting [6] was 0, the Stunting ([7]; dose 50 μg/mL) was 0 and the Stunting ([7]; dose 100 μg/mL) was 46%. The Stunting ([8]; stage egg/lv, dose 30 μg/mL) was 0, the Stunting ([8]; stage lv, dose 100 μg/mL) was 86% and the Stunting ([9]; dose 30 μg/mL) was 0. The Stunting ([9]; dose 100 μg/mL) was 30%, the “Relative Rate” value ([10]; sterol: 20-OH ecdysone) was less than 1 and the “Relative Rate” value ([10]; sterol: campesterol*) was 65. For the same molecule, the “Relative Rate” value ([10]; sterol: cholesterol) was 100, the “Relative Rate” value ([10]; sterol: dehydrocholesterol) was 13 and the “Relative Rate” value ([10]; sterol: dihydrocholesterol) was 56. For the same molecule, the “Relative Rate” value ([10]; sterol: ecdysone) was less than 1, the “Relative Rate” value ([10]; sterol: fucosterol) was 22 and the “Relative Rate” value ([10]; sterol: lanosterol) was less than 1. The “Relative Rate” value ([10]; sterol: lathosterol) was 28, the “Relative Rate” value ([10]; sterol: sitosterol) was 88 and the “Relative Rate” value ([10]; sterol: stigmasterol) was 22. The “Percent Mortality (corrected for control mortality)” value (“Percent Mortality” for short) ([11]; interval 7 days) was 20%, the “Percent Mortality” value ([11]; interval 10 days) was 61% and the “Percent Mortality” value ([11]; interval 14 days) was 80%.
